Results: the supplement of paper PMC12636428

Tested on: Saccharomyces cerevisiae
Assay: transcriptional activation domain activity (GFP:mCherry ratio, weighted mean of sorted bins, harmonized to initial dataset scale) (arbitrary fluorescence ratio units); higher = stronger transcriptional activation
Conditions: beta-estradiol 1 µM; induction time 4 h
How it was run: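 Sorting into 8 bins by GFP:mCherry ratio followed a 4-hour hold at 30 °C after cultures were diluted 1:5 into SC with 1 uM beta-estradiol. The yeast diploids carried a GFP reporter and had barcoded protein tiles, fused to an estradiol-inducible synthetic transcription factor, integrated at URA3. Barcodes were then sequenced, and tiles with under 50 reads were removed. Activation activity is the read-weighted mean of bin median fluorescence, averaged across barcodes and linearly mapped onto the initial dataset scale.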

Row | Sequence | transcriptional activation domain activity
1 | MCKKGKGVAIGPLSLSWFFNLSLVIFSLLSSLQSLWFLPWPLNFVLMVPVHFV | 79900
2 | GDEDEEDTAELKEEALKGLIAVLVCASVLSIVRALMHSQLDLSILELLVDNMT | 53600
3 | SLHKIHLVYRDVLRDKLRASVGCSRIRKILRSPPLYPTWMRCLFAFICASIIC | 57600
4 | SSGDERQKHQTKSSSKKSREKSKKAAGRNKAEEAKTNDGRKSTRKPSKRTRST | 24900
5 | VPLVSNSGIVCYDSKIMHAFLSGLLFLQGLMILWFIMIFKLVVRVLLGENAED | 43900
6 | VRLLIRCTRRSLYFWACLCCSWGIILHSLFITLANFNVLQSYGSIVIIHLTWC | 74300
7 | AMFAVSILIMIQVNTSAVFFAVDTMLLYLCMELGFTFIYTILVTSRLLVMRCQ | 56600
8 | NEITIQDLNFLQFSSIPKLWENKTLEPGEEYHHSNGTNTDNNETTGADDTDDN | 24500
9 | MQCSISYWRQNQVTDNFALFYIIPCFLSILLYYSSFQSYYEQRAWRLILFFYF | 56700
10 | AATAEPEKKKGSKKDKAAAAPAPAAAPAKDAKSAKKAKKSAAPPPPPPAASSS | 15600
11 | KYLFQSQRFGGHFFQIQVVLRDIEKYLEEVHQFMLQVNIMVLGFHAMLDKAFQ | 55900
12 | MAIDIFFCLAVHIPTCVNLWGHVRTILYVQLVTVMYPSHFLFYFLFLLFYFFL | 34200
13 | MNIDAPRPRPGGDRPIRRRRRPVVACNECRRRKIACDRKSPCCQCTLHRVNCV | 44600
14 | GVPIWRLTGETWNWKEIVDRHPLTGKVVRRRSLKWGMACYRFWWVVWGCLFYI | 59300
15 | MTESHRPNQSLGLDDAAGGRKPAKRKAHRKSRTGCRQCRASRVKCDENKPSCS | 41000
16 | MMLLSVRLCIVFFSFMAACFGIPYTPSILFASLFASALGLHILRIFFLVIVHF | 51300
17 | HQPGPWESLDMPWAIGWGLGAFPGIPWDVFFFPLWPSTLFPGSPPPSLLEAPS | 55500
18 | MYILFFFNIYYLYSILHLFCFRFFFISLFSFSFSLLSLLTYFLQYYIIIYLKI | 58200
19 | AASAPAASSPSASAPADEAAENGEEAASSSKNKKKKKKGAAGGAAPAAGGKKP | 40700
20 | VYMLTMESKKLLLRHVIDKLPGFLPTDLSGVTFLADWIHMQTGRIKKGTFNIV | 59700
21 | MLLMPRLCPVYLIHFCMIYALHLVAPHLSFPLISSGFLIIFTLHYTSTLLTCL | 49400

Row | Sequence | transcriptional activation domain activity
22 | RSSKPSSRFLVLTKQKVYILVTRMVQNAPQTTIERSVGISSISSASVSTLQDD | 29600
23 | KEAKSKSKAAHDNDAKRKTTATKPKRTSARNGKAPVKSKPKKGGGNAEPSAKK | 10300
24 | KQLAKKTESFSGSDLKHLCVSAALDAVKERVTVPWRHSTTSAPSSSAPAEAQP | 19000
25 | KNDDRGDRGERRSRSRRRRHSVTGVDRESRAESKHRDPKHRKHRIAEAGAASA | 41500
26 | AGEKADAPNGEGAGEGNRRRPSGRGRGRGRGGRGARNGRDGAQEEGAEAAAAP | 14300
27 | EAKTDAETAVETQPEPKEEVATEETTKSAAKPAGAKKGGKKRAQPEKPADEAA | 12500
28 | DAAAAAAAKKKKQQQQQQQEKEEEAKKEKASSASSASRASSISAHKASVSAAK | 19700
29 | MSTSSIVMCSLFLIVRTSTFLLTFIFPNSLPLMGYRLRVFFVWYVDFYGWIFT | 57600
30 | TGEKFGIKRKEQQKPEQTAEETVALAKNDTPSFASVFILAYGIHKTLLLPVRL | 41500
31 | CSNIGAQKNQCEFVQLNCHGFNALYLELFYCSKLWKPIIIAILLSCLLMLFGA | 42200
32 | MNLYLLCRYMTLVYCFVYMLGNNITKFDCEVWVKALLSFGYIASILSSSLIVL | 61200
33 | MIMYKIYFYTHFRLFFYICFYVHVEFSKPILLHVVLKLIKQLVFLSTYHLFLL | 47900
34 | AKVWKFHFHGSYTKISVHVINMIYCTMRGHEIPSLHIFKCDRLLTLSVLLGYI | 58200
35 | MFFKMMTTQDIQFVNVCFKLHSTLPMLFIGGIFLIIHCTSSSAIKGRICTAAF | 34100
36 | MAPCIPVMYLSVSSTSFLFLSFFILGWWILFSFTIFPATNSFLCFWAPFFFSH | 46100
37 | MCRTLISFSLFVGVFILTSIRFFCLSLFFLSSFIFYFTLLLFFLLFLSGLFDL | 50300
38 | LLILSLTVPFLHGLLRPHTHYVHLLVVVFLTFSPFFVILTISYEGLFYVIFCI | 57900
39 | VAIFTDVKNDHLMPNFNLHDQYCNSTNHDSHNHNNTVPDSFSQLMSHLSEIDC | 27700
40 | MDILDIFFLFYSLLVSFLFFFLLITLLFLSPFISISFYFLTAFYVYFWVFFRA | 34100
41 | IRLELGIIEDFFGLTLCMSKYLLYHYVISLKLSACFFAVHGYAPNGLDYPWVL | 55000
42 | ELLCIDRETGETRFVEPKVPDGISLRNFGIQVVSSCVLLLLVSLRPPHVLCAC | 53600

Row | Sequence | transcriptional activation domain activity
43 | RRDSVSSSSRGQGGEKGRASSKESNNSGRQGETTSNRSQSKNRAKQTKGDKDS | 15900
44 | DGWGDGGLRAGALEEVQRRAEEMRGRLRLDEEARLYFSRSGNRLVRVVIILVG | 7180
45 | IRYWTWMVWVIIIGSTLAFHVWIAIYSQFDVFTFESELFYLYTTLNFWTCIVF | 57100
46 | LNDDDIEKILQPNDIFTTDRTDASTTSSTAIEDIINPSLDPQSAASPVPSSSF | 81400
47 | MSTEEQADGAPSSASDAGLKIWSCVTCRRRKVRCDRRDPCSNCVRAAIDCHYP | 30100
48 | SFGDLVSVGPRQYYRPTHSLTIISICEEDNNLPASLVKRFNMLMALLVILTNT | 41300
49 | HQLYTDWLYLWWIAYTNKMHGRIYIILKESLKNLPIFGWGAQFYNFIFLCRNW | 56400
50 | LALCQLKFWAIFSSIKHVNGLLKHSYPFDRSNFNVLVKSLIRGMFYKFQERQD | 40100
51 | ESDAGEGDKLSKKQKAESGKAVKPEATEGADKKDKKKDKKEKKKDKEAPAKAD | < 6570
52 | FGAIFVELYFIMSSIWFSKIYYMFGFLFLCYGLMILTCATVTILMVYFLLCAE | 60500
53 | HTRSLRYGKLRNGTLVRVPPTLIVRLKSHFHSLPCGVDLVLGLNGYIWVCMHI | 52700
54 | LNRAARRSTPASRTRREGAIGARVRRRERESERARARTKMGRRSCLRVSAAAT | 61600
55 | KALVDAIITSHNIIIVHNQLIWFPNIVFLMSLIPLHIAAMNLWMALDMLFCFC | 52900
56 | VFCMLYTLLHILAACLHYHCFSHLAPPYQTLLWYSYFNVIIVGLLLFWYCELV | 35100
57 | INILIFICLPYRNFQFFLYLVPMSCSLTPCHWQVIASKLEILLLSTYWITFVA | 61200
58 | ASSYAVQHTRKKGRGGGGGEAGNKPANKAARSWDKNAELHGTQGKMHVTIAVT | 85900
59 | TAPAPEAAAEPAPAAEAEAPAAETAEAPKEEAKDEKKPEKEKKVSRRLSSRVT | 32400
60 | IPIQLGCMHLHSPWMTYALLYQLIYPMMMIYNLVNCIYFGTGTQMLWWMVSIV | 73000
61 | VIHTTAKPYKLHFSNTLLVSTVGLLALLVTTMVFVPWNNYYLPRKWGVFLICF | 42700
62 | TGYKKKKLGHPSEKVVERHASCEPGTRLYSQKLFGRYVLRLLFVVAYMFVKSF | 34800
63 | RDKKKARAKGGAGAAGGEKKAEGAAAGDAAAAADGEDEEREGKRRKIARAAEG | 42200

Row | Sequence | transcriptional activation domain activity
64 | RGDTAAPGAEDDVELHYVCFVKGGDGRLWELDGRRKGPLERGRLGEGEDVLSE | 27800
65 | SNPLTSQANRMSSYDKKTNVLGFDDGTFDNKVFNRTNFEEKAPFDIPLDEFFT | 119000
66 | ITVYMVIIIFCLFQFFLFLIIVGLVPRIDTTYFGWSCWGYGRIIFSWWISGSF | 34400
67 | LYYTAPFNLQPYISYVGCGLVCLVLFFNGFWIFFPGQFSVANLFTSYFAPVFF | 65000
68 | MRHVASRWPILPRLLVPIFHLLAWFLIPVGRLCIRSFPLIFSVVCFLCAFSSC | 51100
69 | MMSDSGQDEKTLPQADKNGTSQVAVPLEATEASEQALLRRLLRKTDLLVMPGL | 24200
70 | MTRAFTIMINLITIVLSFLMSQSFTSYVCHILLCPLANLRPQLLYIWWVSPVL | 54200
71 | MAQVAVFVVHKFLYGIIPLFEISTCAYFPLLVSLWHLNYLLFYAVMFMRLIIL | 75000
72 | KIHLVNLAQVTVFFIHRLLYGIIPLFEIATCAYYPFLVSLWHINYLLFYIVMF | 42000
73 | AHYLNHNPHQPSMGFDQALGLKLSPSSSGLLSTNESNAIEQFLDNLISQDMMS | 110000
74 | RGGNPSGNAGGAGRRAKKSKDRDRNKKKSKKNSGQSGDRSTSSSKNKNKKGGG | < 6570
75 | MHSSGWLWANISLLFPRLFFLTFFSYLLCDLAFRFDRLVCFLWLLFFQWSFII | 52200
76 | RSSVGAYIKPKQQVVAVPCVGPHDSGINVLYLCAPSVEEVVMLTRFVILHLGG | 55500
77 | MLSGLRHLRDEHIFAAAVGFFSHIYYYRYGEHHMQAPLLFWMHISVFLMLFYW | 40100
78 | MSFFLYYFFYLLQGVIIHIIYTYISLFIPLHSFIIISFIFFFFIIFTLFFLLF | 70800
79 | LCILVYLSHVSYLTLLPRFDYLYNIIFNMVIGLSHNALWLVYSLPISAFRRFP | 75800
80 | VIRGLEELVYLDIRLPFQVEFLNMNPLLLGPACILRSMTLVILSSDGCFPTSR | 54000
81 | SSLTSIESMGSVMDESGEEEEEDVIYEVKRARTHSMEVQQARLVSWEGAGMKL | 42300
82 | MSLFLHSIIGGWLLHLFSLLCFLLFCFSAFCFSTTLFVTRRSGFVVGLWSLCL | 52000
83 | ISAQEFSRNFTEDVDESLQSEIDLMNYDNEALNQLMAIDLDKLLGIFPNLSNF | 140000
